Experimental data as given in paper PMC3022821, “Glycogen synthase kinase-3β inactivation inhibits tumor necrosis factor-α production in microglia by modulating nuclear factor κB and MLK3/JNK signaling cascades” (Journal of Neuroinflammation, 2010).

Molecular target: the molecule itself
Experiment: immunoprecipitation and non-reducing SDS-PAGE; BV-2 lysates, IP with goat anti-MLK3; precipitates separated by SDS-PAGE without DTT; blot with rabbit anti-MLK3; disulfide-linked dimer; cells with or without LPS (100 ng/ml)

B1: Mixed lineage kinase 3 (MLK3) (natural protein, mouse (endogenous in BV-2), UniProt Q80XI6 1-850, looked up)
chain: MEPLKNLFLKSPLGSWNGSGSGGGGGTGGVRPEGSPKATAAYANPVWTALFDYEPNGQDELALRKGDRVEVLSRDAAISGDEGWWAGQVGGQVGIFPSNYVSRGGGPPPCEVASFQELRLEEVIGIGGFGKVYRGSWRGELVAVKAARQDPDEDISVTAESVRQEARLFAMLAHPNIIALKAVCLEEPNLCLVMEYAAGGPLSRALAGRRVPPHVLVNWAVQIARGMHYLHCEALVPVIHRDLKSNNILLLQPIEGDDMEHKTLKITDFGLAREWHKTTQMSAAGTYAWMAPEVIKASTFSKGSDVWSFGVLLWELLTGEVPYRGIDCLAVAYGVAVNKLTLPIPSTCPEPFAQLMADCWAQDPHRRPDFASILQQLEALEAQVLREMPRDSFHSMQEGWKREIQGLFDELRAKEKELLSREEELTRAAREQRSQAEQLRRREHLLAQWELEVFERELTLLLQQVDRERPHVRRRRGTFKRSKLRARDGGERISMPLDFKHRITVQASPGLDRRRNVFEVGAGDSPTFPRFRAIQLEPTESGQTWGRQSPRRLEDSSNGERRACWAWGPSSPKPGEAQNGRRRSRMDEATWYLDSDDSSPLGSPSTPPALNGNPPRPSPEPEEPRRAGPTERGNSSGTPKLIQRALLRGTALLASLGLGRDLQPPGGLSRERGESPTAPPPAQMPSPCPPELPSTPLIRLSQTTPDAHSSPTPGPLLLDLGVPSGQPSAKSPRREETRGRTVSPPPGISRSAPGTPGTPRSPPLGLISRPRPSPLRSRIDPWSFVSAGPRPSPLPSPQPAPRRAPWTLFPDSDPFWDSPPANPFRGGSQDCRTQTKDMGAQAPWAPEAGP
notes: Mixed lineage kinase 3 (MLK3), endogenous in murine BV-2 microglial cells; monomer of 105 kDa on SDS-PAGE; Precipitated with a goat anti-MLK3 antibody (Santa Cruz Biotechnology); the dimer is disulfide-linked and is seen only without DTT; source: endogenous, BV-2 cell lysate
  stoichiometry N: 2
